The text below walks through data of PMC4163662.

Experiment [1] addresses GST-Shroom3 SD2 R1838A (mouse) (UniProt Q9QXN0). In words: pull-down; GST-Shroom3 SD2 variants bound to glutathione beads, His-tagged hRock1 SBD soluble; 2 hours at room temperature; washed with NETN; SDS-PAGE, Coomassie Blue.
Experiment [2] has as its target GST-Shroom3 SD2 R1838C (mouse) (UniProt Q9QXN0). The description is as above.

Chain of UniProt Q9QXN0 (Q9QXN0 1562-1986, stated change not applied): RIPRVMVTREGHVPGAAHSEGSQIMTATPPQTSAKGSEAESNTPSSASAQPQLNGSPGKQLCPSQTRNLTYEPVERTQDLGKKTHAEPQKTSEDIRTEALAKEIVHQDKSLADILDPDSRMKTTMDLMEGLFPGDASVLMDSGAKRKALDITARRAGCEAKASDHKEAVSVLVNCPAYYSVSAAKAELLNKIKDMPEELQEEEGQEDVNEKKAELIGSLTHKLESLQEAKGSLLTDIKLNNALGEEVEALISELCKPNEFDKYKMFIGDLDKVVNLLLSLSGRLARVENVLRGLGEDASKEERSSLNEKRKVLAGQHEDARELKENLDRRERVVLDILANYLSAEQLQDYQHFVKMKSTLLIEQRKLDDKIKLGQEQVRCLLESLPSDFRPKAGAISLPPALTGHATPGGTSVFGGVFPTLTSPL

Turning to “His-tagged human Rock1 Shroom-Binding domain (SBD), amino acids 707-946 (from UniProt Q13464 707-946) (domain or fragment)”, the percent reduction in binding relative to wild type in experiment [1] is 45%; in experiment [2], 95%.
